According to publication doi:10.1101/188995 (bioRxiv, 2018):

Biological target: the molecule itself
Assay: negative-stain transmission electron microscopy

B1: recombinant B. subtilis TasA(28-261), fibre-forming (natural protein, B. subtilis NCIB3610, UniProt P54507 28-261, looked up)
chain: AFNDIKSKDATFASGTLDLSAKENSASVNLSNLKPGDKLTKDFQFENNGSLAIKEVLMALNYGDFKANGGSNTSPEDFLSQFEVTLLTVGKEGGNGYPKNIILDDANLKDLYLMSAKNDAAAAEKIKKQIDPKFLNASGKVNVATIDGKTAPEYDGVPKTPTDFDQVQMEIQFKDDKTKDEKGLMVQNKYQGNSIKLQFSFEATQWNGLTIKKDHTDKDGYVKENEKAHSEDKN
Does B1 bind?
Result: binds
